In paper PMC8641930, “PLK1 regulates the PrimPol damage tolerance pathway during the cell cycle” (Science Advances, 2021):

Molecular target: T1, RPA70N (RPA70 1-120) (UniProt P27694 1-120)
T1 construct: Replication Protein A 70 kDa subunit (RPA70), N-terminal domain, residues 1-120; source: E. coli BL21, purified (Ni-NTA, thrombin cleavage of the tag, Superdex 75 SEC)
Assay: SEC; analytical size exclusion chromatography, Superdex 75 10/300 GL; 50 mM tris-HCl, 100 mM NaCl, 2 mM TCEP; CTD variants mixed with RPA70N at 35 uM; interaction read as a shift of the peaks relative to the single proteins
Details: both partners purified

T1 sequence (P27694 1-120): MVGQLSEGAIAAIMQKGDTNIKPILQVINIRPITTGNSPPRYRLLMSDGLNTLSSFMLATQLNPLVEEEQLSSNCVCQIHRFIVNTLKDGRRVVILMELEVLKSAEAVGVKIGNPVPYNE

| Binder | binding result |
| --- | --- |
| PrimPol CTD (PrimPol 480-560) (domain or fragment, human, UniProt Q96LW4 480-560, looked up, also called C-terminal region of WT PrimPol; PrimPol C-terminal domain; source: E. coli BL21, purified (Ni-NTA, Q-Sepharose, Superdex 75 SEC)) TTDEADETRSNETQNPHKPSPSRLSTGASADAVWDNGIDDAYFLEATEDAELAEAAENSLLSYNSEVDEIPDELIIEVLQE | binds |
| PrimPol CTD (PrimPol 480-560) S538A (domain or fragment, human, UniProt Q96LW4 480-560, looked up, Primase-Polymerase (PrimPol), human, C-terminal domain, residues 480-560, phospho-null mutant S538A; also called C-terminal region of mutant PrimPol; CTD S538A; source: E. coli BL21, purified (Ni-NTA, Q-Sepharose, Superdex 75 SEC)) TTDEADETRSNETQNPHKPSPSRLSTGASADAVWDNGIDDAYFLEATEDAELAEAAENALLSYNSEVDEIPDELIIEVLQE | binds |
| PrimPol CTD (PrimPol 480-560) S538E (domain or fragment, human, UniProt Q96LW4 480-560, looked up, Primase-Polymerase (PrimPol), human, C-terminal domain, residues 480-560, phosphomimetic mutant S538E; also called C-terminal region of mutant PrimPol; CTD S538E; source: E. coli BL21, purified (Ni-NTA, Q-Sepharose, Superdex 75 SEC)) TTDEADETRSNETQNPHKPSPSRLSTGASADAVWDNGIDDAYFLEATEDAELAEAAENELLSYNSEVDEIPDELIIEVLQE | binds |
